Assay results from US20080103095A1.

Biological target: firefly luciferase (firefly) [luciferase: P08659]
Experiment: cell-based or functional assay

Chain of firefly luciferase (firefly) [luciferase: P08659] (P08659 whole entry): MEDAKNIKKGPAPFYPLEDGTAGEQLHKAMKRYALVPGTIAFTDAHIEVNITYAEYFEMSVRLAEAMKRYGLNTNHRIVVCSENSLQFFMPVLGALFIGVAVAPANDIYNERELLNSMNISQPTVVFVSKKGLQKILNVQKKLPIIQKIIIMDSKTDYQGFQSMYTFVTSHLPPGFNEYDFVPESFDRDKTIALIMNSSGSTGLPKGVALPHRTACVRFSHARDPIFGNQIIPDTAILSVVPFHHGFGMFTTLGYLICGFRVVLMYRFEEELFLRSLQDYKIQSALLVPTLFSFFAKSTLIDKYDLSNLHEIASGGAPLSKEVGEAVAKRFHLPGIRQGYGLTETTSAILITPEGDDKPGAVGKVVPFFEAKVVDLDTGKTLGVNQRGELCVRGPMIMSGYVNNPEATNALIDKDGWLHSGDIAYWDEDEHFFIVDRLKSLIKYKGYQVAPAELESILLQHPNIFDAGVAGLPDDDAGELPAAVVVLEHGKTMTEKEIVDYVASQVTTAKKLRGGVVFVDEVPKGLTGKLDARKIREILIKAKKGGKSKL

percent protein aggregation (light scattering, OD 320 nm, 43° C 30 min; luciferase heated alone = 100%)	Substance
40%	grp170 as used in Examples 6 and 8 (source and species not stated)
20%	hsp110 as used in Examples 6, 8 and 10 (source and species not stated)
